From patent WO2009138494A2 (dated 2009)

How the values were obtained:
Assay in all cases: ELISA: TLR coated at 2 ug/ml, periplasmic extract of the clone, anti-VHH detection, OD against no-Nanobody control
[1] = biological target: T1, recombinant human TLR3, R&D Systems cat no: 1487-TR (human, UniProt O15455 27-700, limits assumed)
T1 construct: Bought protein, coated on ELISA plates; also called hTLR3

[2] = biological target: T2, recombinant human TLR4/MD2 (rhTLR4/MD2), R&D Systems cat no: 3146-TM/CF (human, UniProt O00206 24-631; Q9Y6Y9 17-160, limits assumed)
T2 construct: Bought protein, coated on ELISA plates

[3] = biological target: T3, recombinant murine TLR3, R&D Systems cat no: 3005-TR (murine, UniProt Q99MB1 26-705, limits assumed)
T3 construct: Bought protein, coated on ELISA plates; also called mTLR3
T3 sequence (Q99MB1 26-705 limits assumed): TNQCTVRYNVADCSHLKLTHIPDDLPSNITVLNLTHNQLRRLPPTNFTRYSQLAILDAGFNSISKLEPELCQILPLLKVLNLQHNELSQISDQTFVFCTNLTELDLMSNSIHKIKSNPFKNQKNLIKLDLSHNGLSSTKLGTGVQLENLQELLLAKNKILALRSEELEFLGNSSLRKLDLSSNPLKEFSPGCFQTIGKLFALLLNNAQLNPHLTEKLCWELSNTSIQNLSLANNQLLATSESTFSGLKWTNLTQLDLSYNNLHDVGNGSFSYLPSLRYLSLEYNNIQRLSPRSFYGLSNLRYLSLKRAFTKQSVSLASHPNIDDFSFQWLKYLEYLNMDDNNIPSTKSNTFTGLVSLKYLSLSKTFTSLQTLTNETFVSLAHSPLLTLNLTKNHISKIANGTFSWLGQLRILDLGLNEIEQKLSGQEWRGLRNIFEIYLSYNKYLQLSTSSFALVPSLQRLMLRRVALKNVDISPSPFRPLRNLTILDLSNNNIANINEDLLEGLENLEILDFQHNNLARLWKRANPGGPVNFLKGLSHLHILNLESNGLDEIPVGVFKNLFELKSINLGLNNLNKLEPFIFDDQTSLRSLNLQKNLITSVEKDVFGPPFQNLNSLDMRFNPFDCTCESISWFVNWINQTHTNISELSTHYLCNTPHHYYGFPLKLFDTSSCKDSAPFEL

T2 sequence (O00206 24-631 limits assumed, chain 1 of 2): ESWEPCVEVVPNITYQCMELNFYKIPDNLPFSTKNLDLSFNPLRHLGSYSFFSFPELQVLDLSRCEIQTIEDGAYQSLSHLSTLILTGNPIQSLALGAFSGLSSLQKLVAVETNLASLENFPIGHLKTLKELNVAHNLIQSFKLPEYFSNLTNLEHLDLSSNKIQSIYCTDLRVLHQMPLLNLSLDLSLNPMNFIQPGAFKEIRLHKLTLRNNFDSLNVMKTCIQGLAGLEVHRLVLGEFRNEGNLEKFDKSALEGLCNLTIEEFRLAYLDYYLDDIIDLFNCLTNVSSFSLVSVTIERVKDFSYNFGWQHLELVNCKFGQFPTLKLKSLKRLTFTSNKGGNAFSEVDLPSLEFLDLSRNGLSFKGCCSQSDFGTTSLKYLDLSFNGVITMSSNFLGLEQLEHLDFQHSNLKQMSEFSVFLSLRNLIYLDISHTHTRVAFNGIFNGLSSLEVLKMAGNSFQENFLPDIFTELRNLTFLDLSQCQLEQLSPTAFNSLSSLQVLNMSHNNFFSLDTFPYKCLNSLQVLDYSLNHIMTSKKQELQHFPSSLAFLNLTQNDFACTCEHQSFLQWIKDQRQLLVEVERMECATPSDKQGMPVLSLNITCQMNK
T2 sequence (Q9Y6Y9 17-160 limits assumed, chain 2 of 2): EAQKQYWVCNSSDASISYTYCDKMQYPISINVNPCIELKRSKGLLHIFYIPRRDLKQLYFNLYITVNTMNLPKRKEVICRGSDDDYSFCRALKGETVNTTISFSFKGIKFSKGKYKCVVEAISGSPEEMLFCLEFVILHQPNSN

| Binder | binding result [1] | binding result [2] | binding result [3] |
| --- | --- | --- | --- |
| 132-F7 (VHH, not shown: C-terminal c-myc tag and (His)6 tag coded by the vector) VHH: EVQLVESGGGLVQAGGSLRLSCAASGNTFSFNVMGWYRQAPGKQRELVTIIDNGGTTNYADSVKGRFTISRDNAKNTVYLQMNSLKPEDTARYYCHARRGGTLYILGDSNYWGQGTQVTVSS | binds |  |  |
| 132-F12 (VHH, not shown: C-terminal c-myc tag and (His)6 tag coded by the vector) VHH: EVQLVESGGGLVQAGGSLRLSCAASGNTFSFNVMGWYRQAPGNQRELVTIIDNSGTTNYADSVKGRFTVSRDNAKNTVYLQMNSLKPEDTARYYCHARRGGGLYILGESNYWGQGTQVTVSS | binds |  |  |
| 132-E10 (VHH, not shown: C-terminal c-myc tag and (His)6 tag coded by the vector) VHH: EVQLVESGGGLVQAGGSLRLSCAASGNTFSINVMGWYRQAPGKQRELVTIIDNGGTTSYADSVKGRFTISRDNAKNTVYLQMNSLKPEDTARYTCHARRGGTLYTLGDSNYWGQGTQVTVSS | binds |  |  |
| 132-B8 (VHH, not shown: C-terminal c-myc tag and (His)6 tag coded by the vector) VHH: AVQLVESGGGLVQAGGSLRLSCAASGNTFSINVMGWYRQAPGKQRDLVTIIDDGGTTNYADSVKGRFTISRDNAKNTVYLQMNSLKPEDTARYFCHARRGGNAYTLGESNYWGQGTQVTVSS | binds |  |  |
| 132-G9 (VHH, not shown: C-terminal c-myc tag and (His)6 tag coded by the vector) VHH: EVQLVESGGGLVQTGGSLRLSCAASGNTFNFNVMGWYRQAPGKQRELVTIIDNSGTTNYADSVKGRFTISRDNAKNTVYLQMNSLKPEDTARYFCHARRGGSLYTLGDSNYWGQGTQVTVSS | binds |  |  |
| 132-B12 (VHH, not shown: C-terminal c-myc tag and (His)6 tag coded by the vector) VHH: EVQLVESGGGLVQAGGSLRLSCAASGNTFSINVMGWYRQAPGKQRELVTIMDDSGTTNYAGSVKGRFTISRDNAKNTVYLQMSSLKPEDTARYFCHARRGGTAYTLGDSNYWGQGTQVTVSS | binds |  |  |
| 107-H8 (VHH, not shown: C-terminal c-myc tag and (His)6 tag coded by the vector) VHH: EVQLVESGGGLVQAGGSLRLSCVASRGTLNNNPMAMGWFRRAPGKEREFVASIDWSGRSTYYADSVKGRFTISRDNAKNTVWLQINSLEPEDTSVYFCASRREYYTGISIVESDYPYWGQGTQVTVSS |  | binds |  |
| 133-H5 (VHH, not shown: C-terminal c-myc tag and (His)6 tag coded by the vector) VHH: EVQLVESGGGLVQAGESLRLSCVVSGISISTKVMGWYRQAPGKQGESVAIIKTDGSTYYPDSVKGRFAISRDNAKNTVYLQMNSLKVEDTGVYYCIITGWGRGQGTQVTVSS |  | binds |  |
| 132-G5 (VHH, not shown: C-terminal c-myc tag and (His)6 tag coded by the vector) VHH: EVQLVESGGGLVQPGGSLRLSCAASGSILSIHYMGWFRQAPGKQRELVAGIPTGGTTNYADSVKGRFTMSRDNAKNTVDLQMNTMKPEDTAVYYCNAWISSERESRWLNYWGQGTQVTVSS |  |  | binds |
| 132-A12 (VHH, not shown: C-terminal c-myc tag and (His)6 tag coded by the vector) VHH: EVQLVESGGGLVQAGGSLRLSCAASGRNFRRNSMGWYRLTSGKQREMVARISNGGTTVYADSVKGRFTISRDNAKNTVYLQMNSLKFEDTAVYYCNAGDYTDSMYWGQGTQVTVSS | binds |  |  |
| 132-D3 (VHH, not shown: C-terminal c-myc tag and (His)6 tag coded by the vector) VHH: VQLVESGGGLVQAGGSLRLSCVASGTSFSVGAAGWYRQAPGKQRDLVAEIYPSGSTIYADSVKGRFTISRDNAKNTVYLQMNALKPEDTAVYYCNVVRWGVDYWGQGTQVTVSS |  |  | binds |
| 132-B3 (VHH, not shown: C-terminal c-myc tag and (His)6 tag coded by the vector) VHH: EVQLVESGGGLVQAGGSLRLSCVASGSPFSIGATGWYRQAPGKQRDLVAEIYPSGDTIYADSVKGRSTISRDNAKNTVYLQMNSLKPEDTAVYFCNVVRWGVDYWGQGTQVTVSS |  |  | binds |
| 132-D1 (VHH, not shown: C-terminal c-myc tag and (His)6 tag coded by the vector) VHH: EVQLVESGGGLVQAGGSLRLSCVASGTSFSIGAAGWYRQAPGKQRDLLAEIYPSGSTIYADSVKGRFTISRDNAKNTVYLQMNALKPEDTAVYYCNAVRWGVDYWGQGTQVTVSS |  |  | binds |
| 133-H9 (VHH, not shown: C-terminal c-myc tag and (His)6 tag coded by the vector) VHH: EVQLVESGGGLVQPGGSLRLSCAASGSIFSINDMGWFRQAPGKEREHVALIRIKDGSIYYADSVKGRFTISRDNAKNTVYLQMNSLKPEDTAVYYCAAKTGTSFVYWGQGTQVTVSS |  | binds |  |

Second part, the binder after the results:

| binding result [1] | binding result [2] | binding result [3] | Binder |
| --- | --- | --- | --- |
|  |  | binds | 132-B1 (VHH, not shown: C-terminal c-myc tag and (His)6 tag coded by the vector) VHH: EVQLVESGGGLVQAGGSLRLSCVASGSPFSIGATGWYRQAPGKQRDLVAEIYPSGDTIYADSVKGRSTISRDNAKNTVYLQMNSMKPEDTAVYFCNVVRWGVDYWGQGTQVTVSS |
|  |  | binds | 132-H4 (VHH, not shown: C-terminal c-myc tag and (His)6 tag coded by the vector) VHH: EVQLVESGGGLVQAGGSLRLSCVASGTSIMVGAMGWYRQAPGKQRDLVAEIYPSGSTIYEDSVKGRFTISRDNAKNTVYLQMNSLKPEDTAVYYCNVLRWGVDYWGQGTQVTVSS |
|  |  | binds | 132-E5 (VHH, not shown: C-terminal c-myc tag and (His)6 tag coded by the vector) VHH: EVQLVESGGGLVQAGGSLRLSCVVSGSSFSVGAAGWYRQAPGKQRDLVAEIYPSGSTSYADSVKGRFTISRDNAKNIMYLQMNALKLEDTAVYYCNVVRWGVDYWGQGTQVTVSS |
|  |  | binds | 132-B5 (VHH, not shown: C-terminal c-myc tag and (His)6 tag coded by the vector) VHH: EVQLVESGGGLVQAGGSLRLSCVASGLVSSYYGMGWFRQAPGKEREFVASVNWSGKDTYYGDSVKGRFAVSRDSGKNTGFLQMNSLKSEDTAVYYCARRRGGGTGTGNPSEYDYWGQGTQVTVSS |
|  | binds |  | 133-F8 (VHH, not shown: C-terminal c-myc tag and (His)6 tag coded by the vector) VHH: EVQLVESGGGLVQPGGSLRLSCAASGSIFSINDMGWFRQAPGKEREHVALIRFKDGSIYYADSVKGRFTISRDNAKSTVYLQMNSLKPEDTAVYYCAAKTGTSFVYWGQGTQVTVSS |
|  | binds |  | 133-E12 (VHH, not shown: C-terminal c-myc tag and (His)6 tag coded by the vector) VHH: EVQLVESGGGLVQPGGSLRLSCAASGSIFSISDMGWFRQAPGKEREHVALIRIKDGSIYYADSVKGRFTISRDNAENTVYLQMNSLRPEDTAVYYCGAKTGTSFVYWGQGTQVTVSS |
|  | binds |  | 133-F12 (VHH, not shown: C-terminal c-myc tag and (His)6 tag coded by the vector) VHH: EVQLVESGGGLVQPGGSLRLSCAASGSIFSINDMGWFRQAPGKEREHVALIRFKDGSIYYADSVKGRFTISRDNAKNTVYLQMNSLKPEDTAVYYCAAKTGTSFVCWGQGTQVTVSS |
|  | binds |  | 107-H7 (VHH, not shown: C-terminal c-myc tag and (His)6 tag coded by the vector) VHH: EVQLVESGGGLVQPGGSLRLSCAASGSIFSINDMGWFRQAPGKEREHVALIRIKDGSIYYADSVKGRFTISRDNAKNTVYLQMNSLRPEDTAVYYCGAKTGTSFVYWGQGTQVTVSS |
